# According to IntAct's records for PubMed 25910212:
# B1: Lipopolysaccharide-induced tumor necrosis factor-alpha factor (Homo sapiens), Q99732 (parent)
# chain: MSVPGPYQAATGPSSAPSAPPSYEETVAVNSYYPTPPAPMPGPTTGLVTGPDGKGMNPPSYYTQPAPIPNNNPITVQTVYVQHPITFLDRPIQMCCPSCNKMIVSQLSYNAGALTWLSCGSLCLLGCIAGCCFIPFCVDALQDVDHYCPNCRALLGTYKRL
# B2: U4/U6 small nuclear ribonucleoprotein Prp31 (Homo sapiens), Q8WWY3 (parent)
# chain: MSLADELLADLEEAAEEEEGGSYGEEEEEPAIEDVQEETQLDLSGDSVKTIAKLWDSKMFAEIMMKIEEYISKQAKASEVMGPVEAAPEYRVIVDANNLTVEIENELNIIHKFIRDKYSKRFPELESLVPNALDYIRTVKELGNSLDKCKNNENLQQILTNATIMVVSVTASTTQGQQLSEEELERLEEACDMALELNASKHRIYEYVESRMSFIAPNLSIIIGASTAAKIMGVAGGLTNLSKMPACNIMLLGAQRKTLSGFSSTSVLPHTGYIYHSDIVQSLPPDLRRKAARLVAAKCTLAARVDSFHESTEGKVGYELKDEIERKFDKWQEPPPVKQVKPLPAPLDGQRKKRGGRRYRKMKERLGLTEIRKQANRMSFGEIEEDAYQEDLGFSLGHLGKSGSGRVRQTQVNEATKARISKTLQRTLQKQSVVYGGKSTIRDRSSGTASSVAFTPLQGLEIVNPQAAEKKVAEANQKYFSSMAEFLKVKGEKSGLMST
# partner: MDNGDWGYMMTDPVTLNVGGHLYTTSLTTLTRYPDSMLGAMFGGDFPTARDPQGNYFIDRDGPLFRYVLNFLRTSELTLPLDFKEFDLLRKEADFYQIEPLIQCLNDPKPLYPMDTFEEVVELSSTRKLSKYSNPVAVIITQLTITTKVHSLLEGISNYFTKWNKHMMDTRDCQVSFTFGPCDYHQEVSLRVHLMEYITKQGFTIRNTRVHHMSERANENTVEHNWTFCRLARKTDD
# B3: EF-hand domain-containing protein 1 (Homo sapiens), Q5JVL4 (parent)
# chain: MVSNPVHGLPFLPGTSFKDSTKTAFHRSQTLSYRNGYAIVRRPTVGIGGDRLQFNQLSQAELDELASKAPVLTYGQPKQAPPADFIPAHVAFDKKVLKFDAYFQEDVPMSTEEQYRIRQVNIYYYLEDDSMSVIEPVVENSGILQGKLIKRQRLAKNDRGDHYHWKDLNRGINITIYGKTFRVVDCDQFTQVFLESQGIELNPPEKMALDPYTELRKQPLRKYVTPSDFDQLKQFLTFDKQVLRFYAIWDDTDSMYGECRTYIIHYYLMDDTVEIREVHERNDGRDPFPLLMNRQRVPKVLVENAKNFPQCVLEISDQEVLEWYTAKDFIVGKSLTILGRTFFIYDCDPFTRRYYKEKFGITDLPRIDVSKREPPPVKQELPPYNGFGLVEDSAQNCFALIPKAPKKDVIKMLVNDNKVLRYLAVLESPIPEDKDRRFVFSYFLATDMISIFEPPVRNSGIIGGKYLGRTKVVKPYSTVDNPVYYGPSDFFIGAVIEVFGHRFIILDTDEYVLKYMESNAAQYSPEALASIQNHVRKREAPAPEAESKQTEKDPGVQELEALIDTIQKQLKDHSCKDNIREAFQIYDKEASGYVDRDMFFKICESLNVPVDDSLVKELIRMCSHGEGKINYYNFVRAFSN
# partner: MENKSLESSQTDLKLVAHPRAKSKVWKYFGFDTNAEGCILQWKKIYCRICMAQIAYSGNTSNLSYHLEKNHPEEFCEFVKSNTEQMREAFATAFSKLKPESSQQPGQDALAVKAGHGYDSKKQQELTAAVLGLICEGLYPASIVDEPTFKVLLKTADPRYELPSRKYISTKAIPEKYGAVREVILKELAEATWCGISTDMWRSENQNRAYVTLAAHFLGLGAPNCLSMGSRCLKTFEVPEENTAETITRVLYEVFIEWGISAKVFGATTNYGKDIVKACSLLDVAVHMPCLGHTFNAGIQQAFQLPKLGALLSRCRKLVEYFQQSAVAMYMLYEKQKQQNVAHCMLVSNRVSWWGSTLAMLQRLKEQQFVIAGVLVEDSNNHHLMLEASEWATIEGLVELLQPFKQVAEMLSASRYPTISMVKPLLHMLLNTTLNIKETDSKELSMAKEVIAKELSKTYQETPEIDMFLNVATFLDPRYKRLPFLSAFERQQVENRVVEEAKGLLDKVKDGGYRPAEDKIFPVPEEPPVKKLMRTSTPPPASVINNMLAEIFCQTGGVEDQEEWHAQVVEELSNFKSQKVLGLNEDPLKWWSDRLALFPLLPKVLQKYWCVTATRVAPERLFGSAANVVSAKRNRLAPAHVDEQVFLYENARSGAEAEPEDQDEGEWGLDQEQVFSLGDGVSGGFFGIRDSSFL
# B4: Neuromedin-B (Homo sapiens), P08949-2 (parent)
# chain: MARRAGGARMFGSLLLFALLAAGVAPLSWDLPEPRSRASKIRVHSRGNLWATGHFMGKKSLEPSSPSPLGTAPHTSLRDQRLQLSHDLLGILLLKKALGVSLSRPAPQIQEAAGTNTAEMTPIMGQTQQRGLDCAHPGKVLNGTLLMAPSGCKS
# B5: Corrinoid adenosyltransferase MMAB (Homo sapiens), Q96EY8 (parent)
# chain: MAVCGLGSRLGLGSRLGLRGCFGAARLLYPRFQSRGPQGVEDGDRPQPSSKTPRIPKIYTKTGDKGFSSTFTGERRPKDDQVFEAVGTTDELSSAIGFALELVTEKGHTFAEELQKIQCTLQDVGSALATPCSSAREAHLKYTTFKAGPILELEQWIDKYTSQLPPLTAFILPSGGKISSALHFCRAVCRRAERRVVPLVQMGETDANVAKFLNRLSDYLFTLARYAAMKEGNQEKIYMKNDPSAESEGL
# partner: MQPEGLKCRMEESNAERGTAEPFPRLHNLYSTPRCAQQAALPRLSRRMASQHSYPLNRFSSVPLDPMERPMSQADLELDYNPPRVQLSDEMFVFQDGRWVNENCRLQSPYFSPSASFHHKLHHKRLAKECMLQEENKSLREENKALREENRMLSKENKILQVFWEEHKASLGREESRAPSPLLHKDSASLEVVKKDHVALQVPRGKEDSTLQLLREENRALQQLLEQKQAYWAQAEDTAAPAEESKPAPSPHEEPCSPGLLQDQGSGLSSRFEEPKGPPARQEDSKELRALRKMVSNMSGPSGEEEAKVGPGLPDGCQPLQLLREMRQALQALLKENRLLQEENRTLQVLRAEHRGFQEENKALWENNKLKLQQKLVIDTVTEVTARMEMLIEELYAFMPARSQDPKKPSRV
# B6: U4/U6 small nuclear ribonucleoprotein Prp3 (Homo sapiens), O43395 (parent)
# chain: MALSKRELDELKPWIEKTVKRVLGFSEPTVVTAALNCVGKGMDKKKAADHLKPFLDDSTLRFVDKLFEAVEEGRSSRHSKSSSDRSRKRELKEVFGDDSEISKESSGVKKRRIPRFEEVEEEPEVIPGPPSESPGMLTKLQIKQMMEAATRQIEERKKQLSFISPPTPQPKTPSSSQPERLPIGNTIQPSQAATFMNDAIEKARKAAELQARIQAQLALKPGLIGNANMVGLANLHAMGIAPPKVELKDQTKPTPLILDEQGRTVDATGKEIELTHRMPTLKANIRAVKREQFKQQLKEKPSEDMESNTFFDPRVSIAPSQRQRRTFKFHDKGKFEKIAQRLRTKAQLEKLQAEISQAARKTGIHTSTRLALIAPKKELKEGDIPEIEWWDSYIIPNGFDLTEENPKREDYFGITNLVEHPAQLNPPVDNDTPVTLGVYLTKKEQKKLRRQTRREAQKELQEKVRLGLMPPPEPKVRISNLMRVLGTEAVQDPTKVEAHVRAQMAKRQKAHEEANAARKLTAEQRKVKKIKKLKEDISQGVHISVYRVRNLSNPAKKFKIEANAGQLYLTGVVVLHKDVNVVVVEGGPKAQKKFKRLMLHRIKWDEQTSNTKGDDDEESDEEAVKKTNKCVLVWEGTAKDRSFGEMKFKQCPTENMAREHFKKHGAEHYWDLALSESVLESTD
# Variants of: B1
# Settings: with UBQLN1, Q9UMX0-2
# UBQLN1, Q9UMX0-2, sequence (Q9UMX0 other isoform, or with tags, fused parts or gaps): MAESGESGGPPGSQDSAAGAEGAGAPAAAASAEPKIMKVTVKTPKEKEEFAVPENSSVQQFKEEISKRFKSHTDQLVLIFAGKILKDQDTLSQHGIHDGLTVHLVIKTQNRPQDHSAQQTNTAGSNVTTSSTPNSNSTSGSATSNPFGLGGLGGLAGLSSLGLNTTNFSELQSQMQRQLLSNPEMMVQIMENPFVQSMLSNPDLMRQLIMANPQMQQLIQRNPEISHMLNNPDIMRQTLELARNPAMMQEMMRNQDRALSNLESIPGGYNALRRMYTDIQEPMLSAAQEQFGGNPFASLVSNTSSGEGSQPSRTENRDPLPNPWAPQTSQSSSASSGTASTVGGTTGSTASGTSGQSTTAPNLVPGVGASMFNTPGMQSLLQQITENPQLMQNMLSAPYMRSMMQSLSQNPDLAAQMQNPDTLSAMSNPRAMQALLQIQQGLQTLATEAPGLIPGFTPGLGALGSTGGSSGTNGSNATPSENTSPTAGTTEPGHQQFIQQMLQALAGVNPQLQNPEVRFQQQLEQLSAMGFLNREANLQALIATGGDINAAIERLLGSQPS
row,effect of a mutation on the interaction,Variant
1,disrupting interaction strength,A111G

# Variants of: B1
# Settings: with stam2_human STAM2, O75886
row,effect of a mutation on the interaction,Variant
1,disrupting interaction strength,A111G

# Variants of: B1
# Settings: with reep6_human REEP6, Q96HR9
# reep6_human REEP6, Q96HR9, sequence (Q96HR9 whole entry): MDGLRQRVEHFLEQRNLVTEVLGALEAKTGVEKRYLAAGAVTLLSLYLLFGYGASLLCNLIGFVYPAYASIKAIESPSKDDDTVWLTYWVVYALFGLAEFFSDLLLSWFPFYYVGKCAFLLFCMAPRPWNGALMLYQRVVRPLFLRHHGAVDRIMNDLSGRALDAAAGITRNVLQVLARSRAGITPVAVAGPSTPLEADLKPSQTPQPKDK
row,effect of a mutation on the interaction,Variant
1,disrupting interaction strength,A111G

# Variants of: B1
# Settings: with hgs_human HGS
row,effect of a mutation on the interaction,Variant
1,disrupting interaction strength,A111G

# Variants of: B1
# Settings: with OPTN
row,effect of a mutation on the interaction,Variant
1,disrupting interaction strength,A111G

# Variants of: B2
# Settings: with kctd6_human KCTD6, Q8NC69
row,effect of a mutation on the interaction,Variant
1,with no effect,L107V

# Variants of: B3
# Settings: with zbed1_human ZBED1, O96006
row,effect of a mutation on the interaction,Variant
1,disrupting interaction strength,R221H
2,with no effect,R159W
3,disrupting interaction strength,P77T

# Variants of: B4
# Settings: with birc2_human BIRC2, Q13490
# birc2_human BIRC2, Q13490, sequence (Q13490 whole entry): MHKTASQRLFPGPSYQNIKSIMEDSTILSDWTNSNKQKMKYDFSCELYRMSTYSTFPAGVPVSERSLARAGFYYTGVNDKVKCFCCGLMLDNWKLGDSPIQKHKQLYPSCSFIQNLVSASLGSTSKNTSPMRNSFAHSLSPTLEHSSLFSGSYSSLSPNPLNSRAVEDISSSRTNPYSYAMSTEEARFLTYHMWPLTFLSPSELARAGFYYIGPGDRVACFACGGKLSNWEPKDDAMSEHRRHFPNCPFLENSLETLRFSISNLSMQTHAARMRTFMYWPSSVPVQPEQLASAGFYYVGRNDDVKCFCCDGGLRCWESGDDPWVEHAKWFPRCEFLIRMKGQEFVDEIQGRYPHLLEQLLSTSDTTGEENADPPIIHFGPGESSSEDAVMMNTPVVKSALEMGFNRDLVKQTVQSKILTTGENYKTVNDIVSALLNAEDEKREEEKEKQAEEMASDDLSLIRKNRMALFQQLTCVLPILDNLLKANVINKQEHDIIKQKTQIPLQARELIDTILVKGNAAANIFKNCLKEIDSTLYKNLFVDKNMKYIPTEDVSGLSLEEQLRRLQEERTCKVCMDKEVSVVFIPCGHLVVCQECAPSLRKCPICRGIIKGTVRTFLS
row,effect of a mutation on the interaction,Variant
1,with no effect,M120I

# Variants of: B5
# Settings: with CBY2, Q8NA61-2
row,Variant,effect of a mutation on the interaction
1,A135T,with no effect
2,I96T,with no effect

# Further lines, results first:
row,effect of a mutation on the interaction,Variant
1,with no effect,R186Q
2,with no effect,R190C

# Variants of: B6
# Settings: with psmd3_human PSMD3, O43242
# psmd3_human PSMD3, O43242, sequence (O43242 whole entry): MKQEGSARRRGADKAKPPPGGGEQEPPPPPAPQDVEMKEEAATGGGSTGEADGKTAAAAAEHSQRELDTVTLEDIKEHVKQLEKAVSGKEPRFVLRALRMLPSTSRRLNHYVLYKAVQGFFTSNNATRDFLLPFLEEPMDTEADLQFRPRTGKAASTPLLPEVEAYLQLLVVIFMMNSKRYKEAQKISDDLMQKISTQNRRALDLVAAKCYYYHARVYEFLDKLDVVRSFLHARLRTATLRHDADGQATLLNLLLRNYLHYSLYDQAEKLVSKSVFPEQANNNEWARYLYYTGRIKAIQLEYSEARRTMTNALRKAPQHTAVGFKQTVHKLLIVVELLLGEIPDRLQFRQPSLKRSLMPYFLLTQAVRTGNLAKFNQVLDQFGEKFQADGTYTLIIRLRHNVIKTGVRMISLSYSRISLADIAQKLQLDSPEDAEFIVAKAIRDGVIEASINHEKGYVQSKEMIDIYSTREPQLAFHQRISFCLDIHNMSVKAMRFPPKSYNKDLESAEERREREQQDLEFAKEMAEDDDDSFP
row,effect of a mutation on the interaction,Variant
1,disrupting interaction strength,P493S
2,disrupting interaction strength,A489D
3,disrupting interaction strength,T494M

# Variants of: B6
# Settings: with fam9b_human FAM9B
row,effect of a mutation on the interaction,Variant
1,with no effect,P493S
2,with no effect,A489D
3,disrupting interaction strength,T494M
